Results reported in patent US20220332804A1 (CSL INNOVATION, published 2022).

Tests used:
Test in all cases: SPR, KD relative to WT C2;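 also: biacore SPR at 37 °C, anti-C2 mAbs captured on anti-human IgG chips with alanine or serine point mutants of C2 as analyte, KD from 1:1 fit compared with wild-type C2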
human C2 H331A = biological target: T1, human C2 H331A (human, UniProt P06681 21-752)
T1 sequence: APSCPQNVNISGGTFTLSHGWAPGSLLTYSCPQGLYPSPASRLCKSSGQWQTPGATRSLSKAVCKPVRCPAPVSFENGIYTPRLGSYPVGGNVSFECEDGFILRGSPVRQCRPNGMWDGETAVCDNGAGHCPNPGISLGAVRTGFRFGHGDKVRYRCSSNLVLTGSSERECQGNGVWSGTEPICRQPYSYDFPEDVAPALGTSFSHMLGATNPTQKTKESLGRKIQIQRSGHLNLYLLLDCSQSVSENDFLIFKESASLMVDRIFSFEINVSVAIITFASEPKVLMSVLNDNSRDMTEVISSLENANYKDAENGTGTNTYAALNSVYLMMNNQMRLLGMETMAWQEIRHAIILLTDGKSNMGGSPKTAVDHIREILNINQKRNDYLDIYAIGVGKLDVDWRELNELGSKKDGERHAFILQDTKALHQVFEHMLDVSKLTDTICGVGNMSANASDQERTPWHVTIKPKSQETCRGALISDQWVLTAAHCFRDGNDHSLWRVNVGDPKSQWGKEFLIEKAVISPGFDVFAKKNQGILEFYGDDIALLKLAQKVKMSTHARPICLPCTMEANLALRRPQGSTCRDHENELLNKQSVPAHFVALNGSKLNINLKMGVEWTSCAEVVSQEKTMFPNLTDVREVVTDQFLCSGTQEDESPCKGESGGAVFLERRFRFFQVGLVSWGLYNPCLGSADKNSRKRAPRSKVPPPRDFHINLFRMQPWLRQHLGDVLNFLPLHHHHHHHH

human C2 E275A = biological target: T2, human C2 E275A (human, UniProt P06681 21-752)
T2 sequence: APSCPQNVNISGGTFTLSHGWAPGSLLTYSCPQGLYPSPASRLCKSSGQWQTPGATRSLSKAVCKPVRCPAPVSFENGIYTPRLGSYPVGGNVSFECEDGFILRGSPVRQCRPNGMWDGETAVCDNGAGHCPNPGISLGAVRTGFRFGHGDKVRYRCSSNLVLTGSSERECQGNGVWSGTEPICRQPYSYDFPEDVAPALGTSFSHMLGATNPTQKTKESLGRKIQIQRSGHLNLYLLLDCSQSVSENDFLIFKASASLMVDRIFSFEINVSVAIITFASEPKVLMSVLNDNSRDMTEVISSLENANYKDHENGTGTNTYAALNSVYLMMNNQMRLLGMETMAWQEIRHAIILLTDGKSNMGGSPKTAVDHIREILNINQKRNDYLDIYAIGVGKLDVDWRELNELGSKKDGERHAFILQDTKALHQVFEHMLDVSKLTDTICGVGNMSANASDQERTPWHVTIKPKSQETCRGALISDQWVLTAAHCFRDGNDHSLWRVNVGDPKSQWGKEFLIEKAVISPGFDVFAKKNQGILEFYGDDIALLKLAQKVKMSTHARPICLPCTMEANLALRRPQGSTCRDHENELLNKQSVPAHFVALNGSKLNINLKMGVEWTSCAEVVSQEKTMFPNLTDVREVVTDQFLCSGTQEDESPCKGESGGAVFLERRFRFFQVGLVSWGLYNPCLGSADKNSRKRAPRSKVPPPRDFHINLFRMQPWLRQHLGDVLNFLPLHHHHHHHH

human C2 W420A = biological target: T3, human C2 W420A (human, UniProt P06681 21-752)
T3 sequence: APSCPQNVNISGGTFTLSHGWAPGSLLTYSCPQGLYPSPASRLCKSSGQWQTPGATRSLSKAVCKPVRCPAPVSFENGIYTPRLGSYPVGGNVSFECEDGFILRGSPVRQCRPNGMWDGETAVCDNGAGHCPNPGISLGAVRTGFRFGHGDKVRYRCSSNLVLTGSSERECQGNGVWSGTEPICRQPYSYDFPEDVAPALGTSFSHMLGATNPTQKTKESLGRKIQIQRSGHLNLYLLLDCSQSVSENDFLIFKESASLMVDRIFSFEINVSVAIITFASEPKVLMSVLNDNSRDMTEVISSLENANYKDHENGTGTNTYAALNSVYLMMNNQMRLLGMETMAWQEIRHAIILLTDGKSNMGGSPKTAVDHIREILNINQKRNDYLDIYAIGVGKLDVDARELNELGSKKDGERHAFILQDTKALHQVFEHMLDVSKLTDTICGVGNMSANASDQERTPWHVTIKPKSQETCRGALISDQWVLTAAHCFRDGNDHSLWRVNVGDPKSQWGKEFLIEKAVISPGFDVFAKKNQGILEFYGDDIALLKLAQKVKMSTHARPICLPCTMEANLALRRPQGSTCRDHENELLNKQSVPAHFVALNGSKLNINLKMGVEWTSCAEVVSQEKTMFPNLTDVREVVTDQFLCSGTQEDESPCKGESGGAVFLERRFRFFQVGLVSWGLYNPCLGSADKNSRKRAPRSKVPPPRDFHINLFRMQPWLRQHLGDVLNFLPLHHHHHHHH

human C2 Y328A = biological target: T4, human C2 Y328A (human, UniProt P06681 21-752)
T4 sequence: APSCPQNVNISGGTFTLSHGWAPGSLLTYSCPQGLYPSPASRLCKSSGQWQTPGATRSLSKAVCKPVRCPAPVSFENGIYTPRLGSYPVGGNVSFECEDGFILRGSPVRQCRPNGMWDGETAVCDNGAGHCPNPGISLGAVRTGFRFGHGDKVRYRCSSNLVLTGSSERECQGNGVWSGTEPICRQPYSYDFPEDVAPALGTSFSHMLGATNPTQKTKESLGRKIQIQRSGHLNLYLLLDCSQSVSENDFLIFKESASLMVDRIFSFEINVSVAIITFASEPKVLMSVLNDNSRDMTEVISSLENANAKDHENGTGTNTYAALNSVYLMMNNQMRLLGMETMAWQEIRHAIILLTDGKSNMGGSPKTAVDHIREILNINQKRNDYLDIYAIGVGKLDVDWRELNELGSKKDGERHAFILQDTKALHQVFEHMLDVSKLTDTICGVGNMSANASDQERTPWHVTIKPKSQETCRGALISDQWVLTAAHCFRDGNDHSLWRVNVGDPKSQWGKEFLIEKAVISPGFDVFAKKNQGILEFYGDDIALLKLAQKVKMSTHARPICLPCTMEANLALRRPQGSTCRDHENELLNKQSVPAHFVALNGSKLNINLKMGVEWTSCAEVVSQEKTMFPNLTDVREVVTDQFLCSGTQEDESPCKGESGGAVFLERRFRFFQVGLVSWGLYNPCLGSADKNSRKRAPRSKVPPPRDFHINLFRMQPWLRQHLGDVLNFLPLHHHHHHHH

B1: RF16-242 (antibody, human IgG4 S228P, lambda, V domains shown)
VH: EVQLLQSGAEVKKPGESLKISCKGSGYSFTSYWIGWVRQMPGKGLEWMGIIYPGDSDTRYSPSFQGQVTISADKSISTAYLQWSSLKASDTAMYYCARRGHYGDYFDYWGQGTLVTVSS
VL: SYELTQPPSVSVSPGQTARITCSGDALPKKYAYWYHQKSGQAPVLVIYEDRRRPSEIPERFSGSSSGTMATLTITGAQVEDEGVYFCYSRDRAGNQRVFGGGTQLTVLG
notes: pH-dependent anti-C2 antibody from a phage display library
Human C2 H331A
  Fold diff: 27 fold
Human C2 E275A
  Fold diff: 6 fold
Human C2 W420A
  Fold diff: 2 fold
Human C2 Y328A
  Fold diff: 6 fold
